Assay results taken from paper PMC7954794, “Protein context shapes the specificity of SH3 domain-mediated interactions in vivo” (Nature Communications, 2021).

B1: YNL243W (protein, UniProt P33338 1-968, looked up)
Protein SLA2: MSRIDSDLQKALKKACSVEETAPKRKHVRACIVYTWDHQSSKAVFTTLKTLPLANDEVQLFKMLIVLHKIIQEGHPSALAEAIRDRDWIRSLGRVHSGGSSYSKLIREYVRYLVLKLDFHAHHRGFNNGTFEYEEYVSLVSVSDPDEGYETILDLMSLQDSLDEFSQIIFASIQSERRNTECKISALIPLIAESYGIYKFITSMLRAMHRQLNDAEGDAALQPLKERYELQHARLFEFYADCSSVKYLTTLVTIPKLPVDAPDVFLINDVDESKEIKFKKREPSVTPARTPARTPTPTPPVVAEPAISPRPVSQRTTSTPTGYLQTMPTGATTGMMIPTATGAANAIFPQATAQMQPDFWANQQAQFANEQNRLEQERVQQLQQQQAQQELFQQQLQKAQQDMMNMQLQQQNQHQNDLIALTNQYEKDQALLQQYDQRVQQLESEITTMDSTASKQLANKDEQLTALQDQLDVWERKYESLAKLYSQLRQEHLNLLPRFKKLQLKVNSAQESIQKKEQLEHKLKQKDLQMAELVKDRDRARLELERSINNAEADSAAATAAAETMTQDKMNPILDAILESGINTIQESVYNLDSPLSWSGPLTPPTFLLSLLESTSENATEFATSFNNLIVDGLAHGDQTEVIHCVSDFSTSMATLVTNSKAYAVTTLPQEQSDQILTLVKRCAREAQYFFEDLMSENLNQVGDEEKTDIVINANVDMQEKLQELSLAIEPLLNIQSVKSNKETNPHSELVATADKIVKSSEHLRVDVPKPLLSLALMIIDAVVALVKAAIQCQNEIATTTSIPLNQFYLKNSRWTEGLISAAKAVAGATNVLITTASKLITSEDNENTSPEQFIVASKEVAASTIQLVAASRVKTSIHSKAQDKLEHCSKDVTDACRSLGNHVMGMIEDDHSTSQQQQPLDFTSEHTLKTAEMEQQVEILKLEQSLSNARKRLGEIRRHAYYNQDDD
B2: YBL007C (protein, UniProt P32790 1-1244, looked up)
Actin cytoskeleton-regulatory …: MTVFLGIYRAVYAYEPQTPEELAIQEDDLLYLLQKSDIDDWWTVKKRVIGSDSEEPVGLVPSTYIEEAPVLKKVRAIYDYEQVQNADEELTFHENDVFDVFDDKDADWLLVKSTVSNEFGFIPGNYVEPENGSTSKQEQAPAAAEAPAATPAAAPASAAVLPTNFLPPPQHNDRARMMQSKEDQAPDEDEEGPPPAMPARPTATTETTDATAAAVRSRTRLSYSDNDNDDEEDDYYYNSNSNNVGNHEYNTEYHSWNVTEIEGRKKKKAKLSIGNNKINFIPQKGTPHEWSIDKLVSYDNEKKHMFLEFVDPYRSLELHTGNTTTCEEIMNIIGEYKGASRDPGLREVEMASKSKKRGIVQYDFMAESQDELTIKSGDKVYILDDKKSKDWWMCQLVDSGKSGLVPAQFIEPVRDKKHTESTASGIIKSIKKNFTKSPSRSRSRSRSKSNANASWKDDELQNDVVGSAAGKRSRKSSLSSHKKNSSATKDFPNPKKSRLWVDRSGTFKVDAEFIGCAKGKIHLHKANGVKIAVAADKLSNEDLAYVEKITGFSLEKFKANDGSSSRGTDSRDSERERRRRLKEQEEKERDRRLKERELYELKKARELLDEERSRLQEKELPPIKPPRPTSTTSVPNTTSVPPAESSNNNNSSNKYDWFEFFLNCGVDVSNCQRYTINFDREQLTEDMMPDINNSMLRTLGLREGDIVRVMKHLDKKFGRENIASIPTNATGNMFSQPDGSLNVATSPETSLPQQLLPQTTSPAQTAPSTSAETDDAWTVKPASKSESNLLSKKSEFTGSMQDLLDLQPLEPKKAAASTPEPNLKDLEPVKTGGTTVPAAPVSSAPVSSAPAPLDPFKTGGNNILPLSTGFVMMPMITGGDMLPMQRTGGFVVPQTTFGMQSQVTGGILPVQKTGNGLIPISNTGGAMMPQTTFGAAATVLPLQKTGGGLIPIATTGGAQFPQTSFNVQGQQQLPTGSILPVQKTANGLISANTGVSMPTVQRTGGTMIPQTSFGVSQQLTGGAMMTQPQNTGSAMMPQTSFNAVPQITGGAMMPQTSFNALPQVTGGAMMPLQRTGGALNTFNTGGAMIPQTSFSSQAQNTGGFRPQSQFGLTLQKTGGIAPLNQNQFTGGAMNTLSTGGVLQQQQPQTMNTFNTGGVMQELQMMTTFNTGGAMQQPQMMNTFNTDGIMQQPQMMNTFNTGGAMQQPQQQALQNQPTGFGFGNGPQQSRQANIFNATASNPFGF
B3: YGR229C (protein, UniProt P32566 1-505, looked up)
Cell wall assembly regulator …: MDLFKRKVKEWVYSLSTDDHYAEYNPDETPTFNMGKRLNSNNGQVNPSQMHLNSVDEEMSMGFQNGVPSNEDINIDEFTSTESNDGVSETLLAWRHIDFWTSEHNPDLNATLSDPCTQNDITHAEEDLEVSFPNPVKASFKIHDGQEDLESMTGTSGLFYGFQLMTLDQVVAMTQAWRNVAKNLNKRSQQGLSHVTSTGSSSSMERLNGNKFKLPNIPDQKSIPPNAVQPVYAHPAWIPLITDNAGNHIGVDLAPGPNGKYAQIITFGRDFDTKFVIAENWGEFLLSFANDLEAGNWYLVDDNDDYFSGDGELVFRDKKSNGPIQDYFEVLKRRTWIKYQENLRSQQQKSQPDTSLQEQKYVPASQKKVAAEQPSTLNAESIKGEDSGSADVQSVQDHESVKIVKTEPSEAETTTVNTESLGQAEHEIKADNVDIKQESERKEDEKQPKVEEKEHVENEHVTESAKKDDDVNKQTEEMNKKEENEIRSDDAKVEEAREEFENIAL

Legend:
Assay type in all cases: cell-based, Saccharomyces cerevisiae
BEM1-1 = experiment: DHFR-PCA on solid medium, bait BEM1-1 (Fig. 1B); settings: bait BEM1-1, label = prey; for medrep (log2 median colony size normalized to plate background, PCA score): 2-8 replicates; for Ratio (SH3-deleted/WT medrep): only significant differences showed, PPIs completely lost have a ratio of 0.1 and the gained PPIs 2.5
Description: (§1) Supplement 41467_2021_21873_MOESM8_ESM.xlsx, sheet "Fig1B" | column: medsize; medrep; Ratio; Score

BEM1-2 = experiment: DHFR-PCA on solid medium, bait BEM1-2 (Fig. 1B); settings: bait BEM1-2, label = prey; for medrep (log2 median colony size normalized to plate background, PCA score): 2-8 replicates
Description: as §1

[1] = test system: 575 putative partners (preys) of 22 WT SH3-containing proteins; experiment: DHFR-PCA on solid medium, WT and SH3-deleted baits (Fig. 1B); parameters: key to Score: 0: SH3-independent; 1: SH3-dependent PPIs; 2: SH3-inhibited PPIs; settings: for medrep (log2 median colony size normalized to plate background, PCA score): label = prey
Summary of the method: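 Interactions scored by DHFR protein-fragment complementation on solid medium using robotic pinning; preys (DHFR F[3] fusions) arrayed in duplicate with control borders. Baits carried C-terminal DHFR F[1,2]-FLAG tags, tested as wild type and as SH3-deleted versions carrying a flexible Gly/Ser stuffer.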

ABP1 = experiment: DHFR-PCA on solid medium, bait ABP1 (Fig. 1B); settings: bait ABP1, label = prey; 2-4 replicates
Description: as §1

BBC1 = experiment: DHFR-PCA on solid medium, bait BBC1 (Fig. 1B); settings: bait BBC1, label = prey; for medrep (log2 median colony size normalized to plate background, PCA score): 2-4 replicates; for Ratio (SH3-deleted/WT medrep): only significant differences showed, PPIs completely lost have a ratio of 0.1 and the gained PPIs 2.5
Description: as §1

Abp1 PPIs = experiment: DHFR-PCA of Abp1 SH3-swapped baits (Fig. 2B-D, S2C, S2F); settings: Fig2B; bait ABP1, label = prey; Replicates 4
Summary of the method: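 Interactions were scored by DHFR protein-fragment complementation. DHFR F[1,2]-tagged Abp1 strains, whose SH3 was swapped for yeast or human ortholog domains, were crossed on YPD at 30 °C for 48 h with a 1536-format array of 575 prey-DHFR F[3] strains and 40 negatives, giving four replicates per pair. PCA selection lasted 4 days after double diploid selection.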

[2] = bait SLA1-2, DHFR-PCA, Replicates 4 (2 for YCR009C, YDR388W)
[3] = bait SLA1-3, DHFR-PCA, Replicates 4 (2 for YCR009C, YDR388W, YIL033C)

Molecule | medrep (log2 median colony size normalized to plate background, PCA score) (BEM1-1) | Ratio (SH3-deleted/WT medrep) (BEM1-1) | medrep (log2 median colony size normalized to plate background, PCA score) (BEM1-2) | Ratio (SH3-deleted/WT medrep) (BEM1-2; only significant differences showed, PPIs completely lost have a ratio of 0.1 and the gained PPIs 2.5) | medrep (log2 median colony size normalized to plate background, PCA score) [1, 2] | Score ([1]; bait SLA1-2, label = prey) | medrep (log2 median colony size normalized to plate background, PCA score) [1, 3] | Score ([1]; bait SLA1-3, label = prey) | medrep (log2 median colony size normalized to plate background, PCA score) (ABP1) | medrep (log2 median colony size normalized to plate background, PCA score) (BBC1) | Ratio (SH3-deleted/WT medrep) (BBC1) | medrep (log2 median colony size normalized to plate background) (Abp1 PPIs) | Ratio (SH3-deleted/WT medrep) ([1]; bait SLA1-2, label = prey, only significant differences shown, PPIs completely lost have a ratio of 0.1, gained PPIs 2.5)
B1 | 1.569 | 0.1 | 1.569 | 0.1 | 4.4709 | 0 | 4.4709 | 0 | 4.661 | 2.46 | 0.1 | – | –
B2 | – | – | – | – | – | – | 4.843 | 0 | 4.393 | 2.803 | 0.1 | 4.393 | –
B3 | 1.341 | 0.1 | 1.341 | – | 3.075 | 1 | 3.075 | 0 | 3.977 | 2.755 | 0.1 | – | 0.1
